# Assay results from the RNAGym collection of RNA variant scans (doi:10.1073/pnas.2313332121).
# B1: TPR t1 (parent)
# chain: GACCAAUCUGCCCUCAGAGCUCGAGAACAUCUUCGGAUGCAGAGGAGGCAGGCUUCGGUGGCGCGAUAGCGCCAACGUCCUCAACCUCCAAUGCAUCCCACCACAUGAUGAUGCCUGAAGAGCCUUGGUUUUUUG
# Variants of: B1
# Assay: polymerase ribozyme fitness, log enrichment relative to wild type (log ratio); higher = more active; in vitro selection for triplet polymerase activity
# Summary of the method: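 In triplicate, a single round of in vitro selection was run on each mutant library, PCR-built and transcribed, covering one subunit of a heterodimeric triplet polymerase ribozyme. Frozen incubation at −7 °C followed annealing with a biotinylated primer, partner subunit and triplets, and extended constructs were then gel-excised, streptavidin-captured and taken through RT-PCR. Fitness is the logarithm of genotype enrichment over wild-type enrichment, from inverse-variance-weighted replicate averages of Illumina-sequenced inputs and outputs. […] only genotypes with ≥10 input reads and ≥1 read per output were kept.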
row,Variant,polymerase ribozyme fitness (log ratio)
1,G39A U116A U129C,-3.92
2,G61U C101A,-1.33
3,A41G G71U,-0.756
4,C3A C56U G61U G113U G120U U126C,-5.49
5,G17U U116A G120A U129G,-5.36
6,C13G C102A,-3.6
7,C15A C40U G120C,-0.554
8,G52U G61U A118G U129A,-1.85
9,C64U C72A A108C,-5.82
10,A41G U78C C82A,-0.297
11,U14C C56G A119U,-3.8
12,A6U G51C C56U,-2.91
13,G17A G69U A118G,0.157
14,U106A C123A,0.524
15,C8G C20A,-1.49
16,G71A C82G,-2.5
17,C13U G42C,-0.781
18,C8A C53A U92A A121U,-1.12
19,C8A C70U C89A G120A,-0.458
20,G61C A100U,-2.98
21,G117C U130C,-2.84

row,Variant,polymerase ribozyme fitness (log ratio)
1,C28A C99U U106A,-5.34
2,G63A U109G,-4.41
3,C8G C15U G48C G71A C124G,0.113
4,C12A A91C U106A G117U,-5.61
5,C8A C12U A43U G51U C56U U81C C85A C97A A111G,-6.23
6,C72G C94A A119U,-1.99
7,U54G C62A A95C A121G,-6.12
8,G45U G117U,-3.43
9,C11G C49A C62A,-0.975
10,G39U C40A C62U,-2.99
11,C13U U32G G35A G51A C114A G122C,-6.85
12,U112G C123U,0.561
13,G63A G117C,-3.7
14,C34A G117A,-3.53
15,C11U A41U G69C,-2.81
16,C8U U9C C12U G17A G19A G44U C114G,-5.67
17,A6G A29C G45U C102A C124U,-5.32
18,C53G C56A C86U U96G G117U,-3.87
19,G47U C72A C76A,-1.85
20,G127C U130C,0.0399
21,U7C G44U,-0.497

row,Variant,polymerase ribozyme fitness (log ratio)
1,U33C U38A C49G A103C G113U G117A,-6.59
2,A29G G39U C94G,-2.78
3,C70U C124A,1.38
4,C11G G113C,-1.3
5,U7C C8G U21C C62G U78A,-1.85
6,C31U A46G C49A G60A A105C G110A,-5.83
7,G42U C62A C73U U112C U130G,-3.26
8,A118U U130G,-0.458
9,C49A G71U C89A U130C,-2.94
10,G71A U78C,-0.782
11,C80U G117A,-2.28
12,G45C U96A,-1.79
13,A37U A121C U126G G128U,0.977
14,G39A C72U U81G U96A G113C C124U,-6.86
15,C22U G77A,-4.04
16,U14A A37U A84G,-2.93
17,G44A A118U,-0.0596
18,A43U G93U U112A G127C,-2.82
19,A6U C70U C88A U129C,-1.84
20,U59G G120U C124U,1.23
21,C53U C56G C76G U125A,-0.978

row,Variant,polymerase ribozyme fitness (log ratio)
1,C15G G36A A100C C124G,-3.29
2,U54A C56A C124A,1.58
3,C56A G77C C98U G128A,-3.89
4,C12A C13U G71A G93A,-0.733
5,C3G U7A C12U C62A G117U,-6.14
6,G10C G69U C79G C80U,-2.66
7,A37U C53G C89U C102U U131A,-2.62
8,C40U C85A G113C,-3.42
9,G17U G71U U132A,-2.7
10,A50U C85G C89A G120U,-3.42
11,U9G G23A G60A G71C G113U G135C,-5.28
12,C49U C56A C70U C76A U132A,-3.06
13,C11U G120A U129G,-1.66
14,C12U U78G U96A G120U U131A,-0.178
15,G71U A74U C104A G117A C124U,-5.66
16,A2G U38G G42U C115U,-3.06
17,A6C U7C C56U A91G U106G G120U,-4.11
18,A27U C34U G45U G69U,-5.7
19,C20A U54G C64G G113C,-7.15
20,C72A C94G C102A C115U,-5.19
